The test deals with Plasmodium falciparum plasmoredoxin (Plasmodium falciparum). Nature of the test: SEC; PfPlrx without TCEP, at least partially oxidized. On the technique in general: In gel filtration, larger molecules generally elute earlier.

By stoichiometry N is commonly meant a count of units in the complex or per binding partner.

The substance “Plasmodium falciparum plasmoredoxin (natural protein)” showed a stoichiometry N of 2.

Values taken from PMC9006252.
